Measured values from the nanobody polyreactivity screen of Harvey et al. (2022).

Assay: yeast display, Sf9 membrane polyspecificity reagent, FACS + sequencing; frameworks hold sequencing errors
Summary of the method: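 A synthetic nanobody library was expressed on Saccharomyces cerevisiae BJ5465 by galactose induction for 36–48 hours. The library was stained for 1 hour at 4 °C with 10% biotinylated, detergent-solubilized Sf9 membrane reagent and enriched with streptavidin microbeads before FACS. Low and high (top ~1%) gates were set on anti-HA fluorescence for expression and streptavidin fluorescence for reagent binding, and each polyreactivity label reflects the gate of origin.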

Sequence	polyreactivity (PSR sort gate)
QVQLVESGGGLLHAGGSLRLSCAASGLIFSDYVMGWYRQAPWKERELVAGITTGGSTKYADSVKWRFTISRDNAKTTVYLQMNSLKPEDTAVYYCAVGKYNYRGSWDYYWGQGTQVTLSS	high polyreactivity
QVQLVESGGGLVQAGGSLRLSCAASGGIFYSYAMGWYRQAPGKERELVAAITWIGGSTYYADSVKGRFTISRDNAKNTVYLQMNSLKPEDTAVYYCAAEILWGGYDYWGQGTQVTVSS	low polyreactivity
QVQLVESGGGLVQAGGSLRLSCAASGSTLLTYTMGWYRQAPGKERELVASITTSARSTYYADSVKGRFTISRDNAKNTVYLQMNSLKPEDTAVYYWGQGTQVTVSS	low polyreactivity
QVQLVESGGGLVQAGGSLRLSCASTGRIFDRNAMGWYRQAPGKVRELVAAISRRGGSTYYADSVKGRFTISRDNAKNNVYLQMNILKPEDTAVYYCNSGYSTRLHDYWGQGTQVTVSS	high polyreactivity
QVQLVESGGGLVQAGGSLRLICAASGLIFPSYAMGWYRQAPGKERELVAGINSGGSTNYADSVKGRFTISRDNAKNTVYLQMNSLKPEDTAVYYCAKDNNYYWYVSPRDYWGQGTQVTVSS	low polyreactivity
QVQLVESGGGLVQAGGSLRLSCAASAFIFRFYTMGWYRQATGKETELVAAITSRGDRTYYADSVKRRFTISRENAKNPVYLQMNSLKPEDTAVYYCAKATRGYRSPYGSIGYYYRGQGTQVTVSS	high polyreactivity
QVQLVESGGGLVQAGGSLRLSCAASGSTVTSNAMGWSRQAPGKERELVAAISSGGSTYYADSVKGRFTISRDNAKNTVYLQMNSLKPEDTAVYYCAAEWHYIYAYDYWGQGTQVTVSS	low polyreactivity
QVQLVESGGGLVQAGGSLRLSCAASGGTQRYYAMGWYRQAPGKEREFVASISRSGGSTYYADSVKGRFTISRDNAKNTVYLQMNSLKPEDTAVYYCAAYWSPGYTTRRGYWGQGTQVTVSS	high polyreactivity
QVHLVESGGGLVQAGGSLRLSCAASGSTFYRYAMGWYRQAPGKERELVAAITTSGDSTYYADSVKGRFTISRDNAKNTVYLQMNSLKPEDTAIYDCNKVGRYSSYYWGQGSQVTVSS	high polyreactivity
QVQLVESGGGLVQAGGSLRLSCAASGSIFYGYAMGWYIQAPGKERELVAAISGNGGSTYFADSVKGRFTISRDNAKNTVYLQMNSLKTEDTAVYYCAVEVYHYGYEYDYWGQGTQVTVSS	high polyreactivity
QVQLVESGGGLVQAGGSLRLTCAASGSTFNAYTMGWYRQAPGKERELVAAISSGAGTYYADSVKGRFTISRDNAKYIVYLPMNSLKPEDTAVYYCAADPVGYYDPSVYWGQGTLVTVSS	low polyreactivity
QVQLVESGGGLVQAGGSLRLSCADSGSTFPFYAMGWYSHSPGKERELVAAITSGGSTYADYVKGRFTISRDNAKNTVYLQMNSLNPEDTAVYYCAGSWPRWWRFGYWGQGTQVTVSS	low polyreactivity
QVQLVESGGGLVQAGGSLRLSCAASGTTNDYYDMGWYRQAPGKERELDAAISSGGDSTYYADSVMGRFTISRDNAKNTVYLQMNSLKPEDTAVYYCAAAVYYGQSVWYYYWGQGTEVTVSS	high polyreactivity
QVQLVESGGALVQAGGSLSLSCAASGSTYSYYAMGWYRQAPGKETEVVAAINRSGGSTYYADSVKGRFTISRDNAKYTVYLQMNSLKPEDTAVYYCAALRSKTVSYDRYDYWGQGTQVTVSS	high polyreactivity
QVQLVESGGGLVQAGGSHPLSCAASGRTFGHNAMRSYRQAPGKERELVAAITRSGGRTFYADSVKGRFTISRDNAMNTVYLQMNSLKPEDTAVFYCATDYYRYRDYAYYWLDYNYWGQGTQVTVSS	high polyreactivity
QVQLVESGGGLVQAGGSLRLSCASSGFSFDYYVMGWYRQAPGKEMELVASNRSRGASTHYADSVKGRFTISRDNAKNTVYLQMNRLKTEDTAVYYCAKGGGYRRAARSFGGGDYWGQGTHVTVSS	low polyreactivity

Sequence	polyreactivity (PSR sort gate)
QVQLVESGGRLVQAGGSLRLSCAASGGIIRGYAMGWYRQAPGKEWELVATIRSSGRTNYADSVKGRFTISRDNEKNTVYFQMNSLKQEDTAVYYCAAVVRQYGFDYWGQGTQVTVSS	low polyreactivity
QVQLVESGGGLVQAGGSLRLSCAASGSTFSYNAMGWYRQAPGKERELVAAISFISGSTYYADSVKGRFTISRDNAKNTVYLQMNSLKPEDTAVYYCNAGRTRRRDYYWQYDYWGQGTQVTVSS	high polyreactivity
QVQLVESGGGLVQAGGSLRLSCAASGSIFYFNAMGWYRQAPGKERELVADISWSGGESTYYADSVKGRFTISRDNAKNTVYLQMNSLKPEYTAVYYCAADYWSPYVYVYWGQGTQVTLSS	low polyreactivity
QVQLVESGGGLVQAGGSLRLSCASSGFTFVYNAMGWYRHAPGKERELVAAITSGGNTYYADSVKGRFTISRDNAKNTVYLQMNSLIPEDTAVYYCAKRGYGRYYAYDYWGQGTQVTVSS	high polyreactivity
QVQLVESGAGLVQAGGSLRLCCAASGSIFAPYAMGWYRQAPGKERELVAAISRSGGSTYYADSVKGRFTISRDNAKNTVYLQMNSLKPEDTAVYYCADRNGLRQYRLDYWGQGTQVTVSS	high polyreactivity
QVQLVESGGGLVQAGGSLRLSCAASGSTFHLYAMGWYRQAPGKEREIVAAIRGRGGNTYADSVKGRFTISRDNAKNTVYLQMNSLKPEDTAVYYCAAPLLRDLRSPYSYNYWGQGTQVTVSS	low polyreactivity
QVQLVESGGGLVQAGGSLRLSCAASGRTFERYALGWYRQAPGKERELVAAIDFSGGSTSYADSVKGRFTISRDNAKNTVYLQMNSLKPEDTAVYYCAARETAHGGKEDDYWGQGTQVTVSS	low polyreactivity
QVQLVESGGGLVQAGRTLRLSCAASGRTLGLYAMGWYRQAPGKERELVAAITTSGGSTSYADSVKGRFTISRDNAKNTVYLEMNSLKPEDTSVYYCAVDVEVTFFQYSWIYGSWGQGTQVTVSS	low polyreactivity
QVQLVESGGGLVQAGGSLRLSCAASGRTLPYYMRWYRQAPGKERELVAAITNGDSTYYADSVKGRFTISRDNAQNTVYLQMNSLKPEDTAVYDCAARQKVPPQYWGQGTQVTVSS	high polyreactivity
QVQLVESGGGLVQAGGSLRLSCAASGSTFDYYAMVWYRQAPGKEREFVAAISYSGGSTYYADSVKGRFTISRDNAKNTVYLQMNSLKPEDTAVYYCAAEGYYYNLYYWGQGTEVTVSS	high polyreactivity
QVHLVESGGGLVQAGGSLRLSCAASGRIFGYYAMGWYRQAPGKERELVARISSSGGSTYYADSVKGRFTISRDNAKNTVYLQMNSLKPEDTAVYYCNTASNRYPGWRAEFDYWGQGTQVTVSS	low polyreactivity
QVQLVESGRGLFQAGGSLRLSCAASGSTFTVNTMGWYRQAPGKERELVDAITKNGANTYYADSVKGRFTISRDNAKNTVYLQMNILKPEDTAVYYCAALYVYGKSYSRWLVELDYWGQGTQVTVSS	low polyreactivity
QVQLVESGGGLVQAGGSLRLSSASSGSIFESNALGWYRQAPGKEREFVAAIDQNDGSTNYADSVKGRFTISRDNAKNTVYLQMYSLNPEDTAVYYCAASPGTASYDYWGQGTQVTVSS	low polyreactivity
QVQLVESGGGLVQAGGSLRLSCAASGRIFHRYVMGWYRQAPGKERELVAAISSGTGSTYYADSVKGRFTISRDTAKNTVYLLMNSLIPEDTAVYYCNAAPGYTSVTYDYWGQGTQVTVSS	high polyreactivity
QVQLVESGGGLVQAGGSLRLSCAASGSTFEYNAMGWYRQAPGKERELVASSTNYADSVKGRFTISRDNAKNTVYLQMNSLKPEDTAVYYCAKTYWYPYGYWGQGTQVTVSS	low polyreactivity
QVQLVESGGGLVQAGGSLRLSCAASGRIFVYNAMGWYIQAPGKERELVAAISWSTGRTNYADSVKGRFTISRDNAKNTVYLQMNSLKPDDTAVYYCAAEWAWEYYSFWSEYDYWGQGTQVTVSS	high polyreactivity
